Measurements reported in publication PMC11228049.

Legend:
untagged βarr2 [1] = target: untagged βarr2 (UniProt P29067); assay: ITC; βarr1 (15 μM) or βarr2 (20 μM) in the sample cell, 400 μM Gβγ C68S in the syringe; 25 °C; 20 mM HEPES, 150 mM NaCl, 0.02% DDM, pH 7.4; an additional early binding site was excluded, the rest fitted to a one-site model
untagged βarr2 [2] = target: untagged βarr2 (UniProt P29067); assay: ITC; βarr form in the sample cell, WT Gβγ in the syringe; 25 °C; 20 mM HEPES, 150 mM NaCl, 0.02% DDM, pH 7.4; one-site model
βarr2 in excess V2Rpp = βarr2 in excess V2Rpp (UniProt P29067); assay: as above

Chain of UniProt P29067 (P29067 whole entry): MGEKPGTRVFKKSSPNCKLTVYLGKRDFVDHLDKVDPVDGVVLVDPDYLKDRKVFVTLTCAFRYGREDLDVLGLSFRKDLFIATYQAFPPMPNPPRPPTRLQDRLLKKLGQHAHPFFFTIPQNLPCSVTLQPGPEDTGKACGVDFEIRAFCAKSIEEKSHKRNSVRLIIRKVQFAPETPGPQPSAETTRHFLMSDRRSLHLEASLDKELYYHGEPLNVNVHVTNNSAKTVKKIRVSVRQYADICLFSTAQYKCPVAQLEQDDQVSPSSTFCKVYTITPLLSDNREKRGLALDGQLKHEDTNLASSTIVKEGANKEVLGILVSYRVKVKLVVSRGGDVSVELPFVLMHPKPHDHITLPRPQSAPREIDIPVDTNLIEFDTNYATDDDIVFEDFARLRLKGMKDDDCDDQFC

Row | Substance | Kd (untagged βarr2 [1]) | Kd (untagged βarr2 [2]) | stoichiometry N (untagged βarr2 [2]) | Kd (βarr2 in excess V2Rpp) | stoichiometry N (βarr2 in excess V2Rpp)
1 | Gβ1γ2 with a C68S mutation in Gγ2 (from UniProt P62873 1-340; P59768 1-71) (complex) | 900 nM | – | – | – | –
2 | recombinant purified WT Gβ1γ2 (from UniProt P62873 1-340; P59768 1-71) (complex) | – | 1500 nM | 1 site | 1800 nM | 1 site
